Assay results taken from US20100081612A1 (GENERAL HOSPITAL, published 2010).
Where no end group is shown, it is not given here. [ ]: non-standard residue; d: D form. Gly(1-amidinopiperidin-4-yl) = N=C(N)N1CCC([C@H](N)C(=O)O)CC1; Cha = N[C@@H](CC1CCCCC1)C(=O)O; Nle = CCCC[C@H](N)C(=O)O

T1: wild-type human PTHR (human, UniProt Q03431 27-593)
T1 construct: whole, on cells; also called PTHR-WT; intact PTHR
T1 sequence (looked up): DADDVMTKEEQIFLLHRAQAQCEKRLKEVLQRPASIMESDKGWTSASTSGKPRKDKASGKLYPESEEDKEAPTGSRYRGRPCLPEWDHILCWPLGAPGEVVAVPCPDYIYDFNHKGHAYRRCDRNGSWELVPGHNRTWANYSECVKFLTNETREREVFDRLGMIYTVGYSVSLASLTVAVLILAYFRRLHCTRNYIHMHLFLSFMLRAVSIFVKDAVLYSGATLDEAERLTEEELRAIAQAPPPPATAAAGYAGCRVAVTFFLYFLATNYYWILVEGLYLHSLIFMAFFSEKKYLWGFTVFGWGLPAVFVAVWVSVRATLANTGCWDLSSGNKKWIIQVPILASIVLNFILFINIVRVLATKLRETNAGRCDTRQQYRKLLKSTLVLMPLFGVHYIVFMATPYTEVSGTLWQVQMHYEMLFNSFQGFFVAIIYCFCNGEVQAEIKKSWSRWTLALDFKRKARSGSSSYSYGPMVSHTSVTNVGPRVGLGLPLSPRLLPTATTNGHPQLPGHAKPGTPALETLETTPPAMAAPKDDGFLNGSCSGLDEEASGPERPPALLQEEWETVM

B1: [Ala^1,Arg^19]hPTH(1-31)NH2 Ser^17→Cha (peptide)
peptide: AVSEIQLMHNLGKHLN[Cha]MRRVEWLRKKLQDV-NH2
modifications: N-terminus assumed
SMILES: CC[C@H](C)[C@H](NC(=O)[C@H](CCC(=O)O)NC(=O)[C@H](CO)NC(=O)[C@@H](NC(=O)[C@H](C)N)C(C)C)C(=O)N[C@@H](CCC(N)=O)C(=O)N[C@@H](CC(C)C)C(=O)N[C@@H](CCSC)C(=O)N[C@@H](Cc1c[nH]cn1)C(=O)N[C@@H](CC(N)=O)C(=O)N[C@@H](CC(C)C)C(=O)NCC(=O)N[C@@H](CCCCN)C(=O)N[C@@H](Cc1c[nH]cn1)C(=O)N[C@@H](CC(C)C)C(=O)N[C@@H](CC(N)=O)C(=O)N[C@@H](CC1CCCCC1)C(=O)N[C@@H](CCSC)C(=O)N[C@@H](CCCNC(=N)N)C(=O)N[C@@H](CCCNC(=N)N)C(=O)N[C@H](C(=O)N[C@@H](CCC(=O)O)C(=O)N[C@@H](Cc1c[nH]c2ccccc12)C(=O)N[C@@H](CC(C)C)C(=O)N[C@@H](CCCNC(=N)N)C(=O)N[C@@H](CCCCN)C(=O)N[C@@H](CCCCN)C(=O)N[C@@H](CC(C)C)C(=O)N[C@@H](CCC(N)=O)C(=O)N[C@@H](CC(=O)O)C(=O)N[C@H](C(N)=O)C(C)C)C(C)C
B2: PTH(1-31)NH2 Arg^20→Nle (peptide)
peptide: SVSEIQLMHNLGKHLNSME[Nle]VEWLRKKLQDV-NH2
modifications: N-terminus assumed
SMILES: CCCC[C@H](NC(=O)[C@H](CCC(=O)O)NC(=O)[C@H](CCSC)NC(=O)[C@H](CO)NC(=O)[C@H](CC(N)=O)NC(=O)[C@H](CC(C)C)NC(=O)[C@H](Cc1c[nH]cn1)NC(=O)[C@H](CCCCN)NC(=O)CNC(=O)[C@H](CC(C)C)NC(=O)[C@H](CC(N)=O)NC(=O)[C@H](Cc1c[nH]cn1)NC(=O)[C@H](CCSC)NC(=O)[C@H](CC(C)C)NC(=O)[C@H](CCC(N)=O)NC(=O)[C@@H](NC(=O)[C@H](CCC(=O)O)NC(=O)[C@H](CO)NC(=O)[C@@H](NC(=O)[C@@H](N)CO)C(C)C)[C@@H](C)CC)C(=O)N[C@H](C(=O)N[C@@H](CCC(=O)O)C(=O)N[C@@H](Cc1c[nH]c2ccccc12)C(=O)N[C@@H](CC(C)C)C(=O)N[C@@H](CCCNC(=N)N)C(=O)N[C@@H](CCCCN)C(=O)N[C@@H](CCCCN)C(=O)N[C@@H](CC(C)C)C(=O)N[C@@H](CCC(N)=O)C(=O)N[C@@H](CC(=O)O)C(=O)N[C@H](C(N)=O)C(C)C)C(C)C
B3: PTH(1-31)NH2 Arg^20→PipGly (peptide)
peptide: SVSEIQLMHNLGKHLNSME[Gly(1-amidinopiperidin-4-yl)]VEWLRKKLQDV-NH2
modifications: N-terminus assumed
SMILES: CC[C@H](C)[C@H](NC(=O)[C@H](CCC(=O)O)NC(=O)[C@H](CO)NC(=O)[C@@H](NC(=O)[C@@H](N)CO)C(C)C)C(=O)N[C@@H](CCC(N)=O)C(=O)N[C@@H](CC(C)C)C(=O)N[C@@H](CCSC)C(=O)N[C@@H](Cc1c[nH]cn1)C(=O)N[C@@H](CC(N)=O)C(=O)N[C@@H](CC(C)C)C(=O)NCC(=O)N[C@@H](CCCCN)C(=O)N[C@@H](Cc1c[nH]cn1)C(=O)N[C@@H](CC(C)C)C(=O)N[C@@H](CC(N)=O)C(=O)N[C@@H](CO)C(=O)N[C@@H](CCSC)C(=O)N[C@@H](CCC(=O)O)C(=O)N[C@H](C(=O)N[C@H](C(=O)N[C@@H](CCC(=O)O)C(=O)N[C@@H](Cc1c[nH]c2ccccc12)C(=O)N[C@@H](CC(C)C)C(=O)N[C@@H](CCCNC(=N)N)C(=O)N[C@@H](CCCCN)C(=O)N[C@@H](CCCCN)C(=O)N[C@@H](CC(C)C)C(=O)N[C@@H](CCC(N)=O)C(=O)N[C@@H](CC(=O)O)C(=O)N[C@H](C(N)=O)C(C)C)C(C)C)C1CCN(C(=N)N)CC1

biological target: PTHR-delNt (human) (UniProt Q03431); assay: competition binding, COS-7 membranes, 125I-[Aib1,3,M]PTH(1-15) tracer

Binder	IC50 [nM]	fold difference of IC50 from PTH(1-31)NH2 [fold]	fold reduction in binding affinity vs [Ala^1,Arg^19]PTH(1-31)NH2 [fold]	fold reduction in binding affinity vs PTH(1-31)NH2 [fold]	fold change in binding affinity vs [Ala^1,Arg^19]PTH(1-31)NH2 [fold]
SVSEIQLMHNLGKHLNSMEQVEWLRKKLQDV-NH2 [PTH(1-31)NH2 Arg^20→Gln]	10300	< 4	–	–	–
SVSEIQLMHNLGKHLNSMRRVEWLRKKLQDV-NH2 [PTH(1-31)NH2 Glu^19→Arg]	1230	–	–	–	–
AVSEIQLMHNLGKHLNSMRREEWLRKKLQDV-NH2 [[Ala^1,Arg^19]hPTH(1-31)NH2 Val^21→Glu]	1620	–	4	–	–
SVSEIQLMHNLGKHLNSMARVAWLRKKLQDV-NH2 [PTH(1-31)NH2 Glu^19,22→Ala,Ala]	619	–	–	–	–
SVSEIQLMHNLGKHLNSMEEVEWLRKKLQDV-NH2 [PTH(1-31)NH2 Arg^20→Glu]	14700	–	–	4	–
AVSEIQLMHNLGKHLNSMRRVEWLEKKLQDV-NH2 [[Ala^1,Arg^19]hPTH(1-31)NH2 Arg^25→Glu]	1630	–	4	–	–
AVSEIQLMHNLGKHLNSMRRVEWLRKELQDV-NH2 [[Ala^1,Arg^19]hPTH(1-31)NH2 Lys^27→Glu]	1270	–	–	–	–
AVSEIQLMHNLGKHLNSMRRVEWLREKLQDV-NH2 [[Ala^1,Arg^19]hPTH(1-31)NH2 Lys^26→Glu]	832	–	–	–	–
SVSEIQLMHNLGKHLNSMEKVEWLRKKLQDV-NH2 [PTH(1-31)NH2 Arg^20→Lys]	7100	< 4	–	–	–
SVSEIQLMHNLGKHLNSMRRVAWLRKKLQDV-NH2 [PTH(1-31)NH2 Glu^19,22→Arg,Ala]	360	–	–	–	–
B1	179	–	–	–	< 3
B2	10700	< 4	–	–	–
B3	6600	< 4	–	–	–
SVSEIQLMHNLGKHLNSMEXVEWLRKKLQDV (citrulline (Cit) at 20; C-terminal amide) [PTH(1-31)NH2 Arg^20→Cit]	10600	< 4	–	–	–

biological target: T1, wild-type human PTHR; assay: competition binding, HKRK-B7 cells, 125I-PTH(1-34) tracer

Binder	fold enhancement in binding affinity vs PTH(1-31)NH2 [fold]	fold reduction in binding affinity vs [Ala^1,Arg^19]PTH(1-31)NH2 [fold]	fold change in binding affinity vs [Ala^1,Arg^19]PTH(1-31)NH2 [fold]	fold reduction in binding affinity vs PTH(1-31)NH2 [fold]
SVSEIQLMHNLGKHLNSMRRVEWLRKKLQDV-NH2 [PTH(1-31)NH2 Glu^19→Arg]	≤ 2	–	–	–
AVSEIQLMHNLGKHLNSMRREEWLRKKLQDV-NH2 [[Ala^1,Arg^19]hPTH(1-31)NH2 Val^21→Glu]	–	12	–	–
B1	–	–	≤ 6	–
B2	–	–	–	~200
B3	–	–	–	~200
SVSEIQLMHNLGKHLNSMEXVEWLRKKLQDV (citrulline (Cit) at 20; C-terminal amide) [PTH(1-31)NH2 Arg^20→Cit]	–	–	–	~200

biological target: T1, wild-type human PTHR; assay: as above; remark: another data set of the same source
Procedure: (§1) Receptor binding—Binding to the wild-type human PTHR in intact HKRK-B7 cells and ROS 17/2.8 cells was assessed using ¹²⁵I-PTH(1-34) as a tracer radioligand, as described (Shimizu, M., (2001) Endocrinology 142:3068-3074). In brief, the cells in 24-well plates (about 500,000 cells per well) were incubated in binding buffer containing radioligand (about 100,000 cpm per well) with or without unlabeled peptide ligand (3×10⁻⁹ to 1×10⁻⁵ M) for four hours at 15° C. The binding mixture was then removed by aspiration, the cells were rinsed three times with binding buffer, lysed in 1 M NaOH, and the entire lysate was counted for gamma-irradiation in a gamma counter. Binding to PTHR-delNt in COS-7 cell membranes was assessed in 96-well, vacuum filtration plates (Multiscreen-Durapore HV, […], Millipore Corp., Millford, Mass.) using ¹²⁵I-[Aib^{1,3},M]PTH(1-15)NH₂ as a tracer radioligand, as described (Dean, T., (2006) Mol Endocrinol 20:931-942). In brief, cell membranes (20 μg/well) were incubated in membrane binding buffer containing radioligand (30,000 cpm/well) with or without unlabeled peptide ligand (3×10⁻⁹ to 1×10⁻⁵ M) for 90 minutes at 21° C. The plates were then subject to rapid vacuum filtration, the filters were washed once with buffer, detached from the plate and counted for gamma-irradiation in a gamma counter. Non-specific binding was defined as the binding observed in the presence of 1×10⁻⁶ M PTH(1-31)NH₂ for HKRK-B7 and ROS 17/2.8 cells, and 1×10⁻⁶ M [Aib^{1,3},M]PTH(1-15)NH₂ for PTHR-delNt. Specifically bound radioactivity was calculated as a percentage of the radioactivity specifically bound in the absence of competing ligand.
Alanine-Scan of the PTH(17-31) domain—Each residue in the (17-31) region of PTH(1-31)NH₂ was individually replaced with alanine and the effects of the substitutions on binding to the intact human PTHR stably expressed in HKRK-B7 cells was assessed. Competition binding studies were performed using whole cells and ¹²⁵I-PTH(1-34) (¹²⁵I-[Nle^{8,21},Tyr³⁴]ratPTH(1-34)NH₂) as a tracer radioligand.

Binder	IC50 [nM]
SVSEIQLMHNLGKHLNSMEQVEWLRKKLQDV-NH2 [PTH(1-31)NH2 Arg^20→Gln]	> 10000
SVSEIQLMHNLGKHLNSMRRVEWLRKKLQDV-NH2 [PTH(1-31)NH2 Glu^19→Arg]	42
SVSEIQLMHNLGKHLNSMARVAWLRKKLQDV-NH2 [PTH(1-31)NH2 Glu^19,22→Ala,Ala]	49
SVSEIQLMHNLGKHLNSMEEVEWLRKKLQDV-NH2 [PTH(1-31)NH2 Arg^20→Glu]	> 10000
SVSEIQLMHNLGKHLNSMEKVEWLRKKLQDV-NH2 [PTH(1-31)NH2 Arg^20→Lys]	> 10000
SVSEIQLMHNLGKHLNSMRRVAWLRKKLQDV-NH2 [PTH(1-31)NH2 Glu^19,22→Arg,Ala]	54
B2	15400
B3	14100
SVSEIQLMHNLGKHLNSMEXVEWLRKKLQDV (citrulline (Cit) at 20; C-terminal amide) [PTH(1-31)NH2 Arg^20→Cit]	11900

biological target: T1, wild-type human PTHR; assay: as above; remark: another data set of the same source
Procedure: as §1
Cyclohexylalanine and glutamate substitutions were introduced into [Ala¹,Arg¹⁹]hPTH(1-31)NH₂. The helical residue values were calculated from [θ]₂₂₂, the mean-residue elipticities observed in the CD spectra at 222 nm. Competition binding studies were performed in intact HKRK-B7 cells stably transfected with the hPTHR using ¹²⁵I-[Nle^{8,21},Tyr³⁴]rPTH(1-34)NH ₂ tracer radioligand, and in membranes prepared from COS-7 cells transiently transfected with hPTHR-delNt and a negative-dominant Gαs using ¹²⁵I-[Aib^{1,3},Nle⁸,Gln¹⁰,Har¹¹,Ala¹²,Trp¹⁴,Tyr¹⁵]rPTH(1-15)NH₂ tracer radioligand. Binding values (nM) are means (+/−s.e.m.) of data from the number of experiments indicated (n).

Binder	IC50 [nM]
AVSEIQLMHNLGKHLNSMRREEWLRKKLQDV-NH2 [[Ala^1,Arg^19]hPTH(1-31)NH2 Val^21→Glu]	447
AVSEIQLMHNLGKHLNSMRRVEWLEKKLQDV-NH2 [[Ala^1,Arg^19]hPTH(1-31)NH2 Arg^25→Glu]	189
AVSEIQLMHNLGKHLNSMRRVEWLRKELQDV-NH2 [[Ala^1,Arg^19]hPTH(1-31)NH2 Lys^27→Glu]	156
AVSEIQLMHNLGKHLNSMRRVEWLREKLQDV-NH2 [[Ala^1,Arg^19]hPTH(1-31)NH2 Lys^26→Glu]	60
B1	112
